Assay results reported in PMC10786891, “Massively parallel profiling of RNA-targeting CRISPR-Cas13d”.

T1: EsCas13d, nuclease-dead (Eubacterium siraeum, UniProt B0MS50, R295A;H300A;R849A;H854A)
T1 sequence: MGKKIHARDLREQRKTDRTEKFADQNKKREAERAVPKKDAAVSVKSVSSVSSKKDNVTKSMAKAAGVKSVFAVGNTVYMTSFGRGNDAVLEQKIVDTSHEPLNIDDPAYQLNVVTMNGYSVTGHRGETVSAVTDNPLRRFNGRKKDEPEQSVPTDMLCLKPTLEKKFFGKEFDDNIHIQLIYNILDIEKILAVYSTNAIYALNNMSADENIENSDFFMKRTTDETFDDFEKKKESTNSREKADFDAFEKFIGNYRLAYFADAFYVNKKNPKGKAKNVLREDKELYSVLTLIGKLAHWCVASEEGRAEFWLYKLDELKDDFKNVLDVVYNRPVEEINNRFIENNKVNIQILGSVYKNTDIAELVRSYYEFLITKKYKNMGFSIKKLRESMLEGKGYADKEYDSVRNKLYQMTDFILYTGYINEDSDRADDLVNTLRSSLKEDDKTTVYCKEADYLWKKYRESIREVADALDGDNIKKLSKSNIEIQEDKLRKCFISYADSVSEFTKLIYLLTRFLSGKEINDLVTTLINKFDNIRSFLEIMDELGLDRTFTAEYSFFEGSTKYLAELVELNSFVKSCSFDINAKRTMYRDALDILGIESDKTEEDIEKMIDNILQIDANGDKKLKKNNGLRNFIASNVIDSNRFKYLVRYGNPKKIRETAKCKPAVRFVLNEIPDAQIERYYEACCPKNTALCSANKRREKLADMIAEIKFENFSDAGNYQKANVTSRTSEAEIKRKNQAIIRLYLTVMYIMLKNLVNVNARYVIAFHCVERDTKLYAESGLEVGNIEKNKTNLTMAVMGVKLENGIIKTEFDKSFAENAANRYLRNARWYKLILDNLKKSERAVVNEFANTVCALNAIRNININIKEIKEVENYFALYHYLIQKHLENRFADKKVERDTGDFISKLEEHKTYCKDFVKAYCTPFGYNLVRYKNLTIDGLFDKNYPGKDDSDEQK


target: T1, EsCas13d, nuclease-dead; assay: crRNA (strand 1, pre-loaded); Mg2+; 40 mM Tris-HCl pH 7.5, 150 mM NaCl, 6 mM MgCl2, 1 mM DTT, 0.1% Tween-20, 0.2 mg/ml BSA; 25 C; 10 min per concentration, then washed; conditions: tags: His6-TwinStrep-SUMO cleaved; N-terminal SNAP kept (SNAP-Surface 488); label: 3' end held by stalled T7 RNA polymerase

| Binder | Kd [nM] |
| --- | --- |
| target 1 G12U,A14G (mixed) RNA 1: CACCCGUGCAAAAAUGCAGGGGUCUAAAACUGAGCGGAUAACCUCUCUAUGG RNA 2: GGGAAUGGAUCCACAUCUACGAAUUCGUACCAUAGAGGGUUUAUCCGCUCACCGAGAUCGGAAGAGCACACGU | 32.7 ± 3 |
| target 1 insG 3' of 6,insU 3' of 4 (mixed) RNA 1: CACCCGUGCAAAAAUGCAGGGGUCUAAAACUGAGCGGAUAACCUCUCUAUGG RNA 2: GGGAAUGGAUCCACAUCUACGAAUUCGUACCAUAGAGAGGUUAUCCGGCUUCACCGAGAUCGGAAGAGCACACGU | 10.6 ± 0.5 |
| target 1 insC 3' of 11,insC 3' of 8 (mixed) RNA 1: CACCCGUGCAAAAAUGCAGGGGUCUAAAACUGAGCGGAUAACCUCUCUAUGG RNA 2: GGGAAUGGAUCCACAUCUACGAAUUCGUACCAUAGAGAGGUCUAUCCCGCUCACCGAGAUCGGAAGAGCACACGU | ~70 |
| target 1 insG 3' of 10,insG 3' of 2 (mixed) RNA 1: CACCCGUGCAAAAAUGCAGGGGUCUAAAACUGAGCGGAUAACCUCUCUAUGG RNA 2: GGGAAUGGAUCCACAUCUACGAAUUCGUACCAUAGAGAGGUUGAUCCGCUCGACCGAGAUCGGAAGAGCACACGU | 34.6 ± 3.1 |
| target 1 insA 3' of 6,insU 3' of 2 (mixed) RNA 1: CACCCGUGCAAAAAUGCAGGGGUCUAAAACUGAGCGGAUAACCUCUCUAUGG RNA 2: GGGAAUGGAUCCACAUCUACGAAUUCGUACCAUAGAGAGGUUAUCCAGCUCUACCGAGAUCGGAAGAGCACACGU | 21 ± 4 |
| target 1 insC 3' of 11,insG 3' of 6 (mixed) RNA 1: CACCCGUGCAAAAAUGCAGGGGUCUAAAACUGAGCGGAUAACCUCUCUAUGG RNA 2: GGGAAUGGAUCCACAUCUACGAAUUCGUACCAUAGAGAGGUCUAUCCGGCUCACCGAGAUCGGAAGAGCACACGU | 44 ± 8 |
| target 1 insU 3' of 14,insC 3' of 13 (mixed) RNA 1: CACCCGUGCAAAAAUGCAGGGGUCUAAAACUGAGCGGAUAACCUCUCUAUGG RNA 2: GGGAAUGGAUCCACAUCUACGAAUUCGUACCAUAGAGAUGCGUUAUCCGCUCACCGAGAUCGGAAGAGCACACGU | 29 ± 5 |
| target 1 U8C,U11C (mixed) RNA 1: CACCCGUGCAAAAAUGCAGGGGUCUAAAACUGAGCGGAUAACCUCUCUAUGG RNA 2: GGGAAUGGAUCCACAUCUACGAAUUCGUACCAUAGAGAGGCUACCCGCUCACCGAGAUCGGAAGAGCACACGU | 12.2 ± 0.6 |
| target 1 U3C,U11A (mixed) RNA 1: CACCCGUGCAAAAAUGCAGGGGUCUAAAACUGAGCGGAUAACCUCUCUAUGG RNA 2: GGGAAUGGAUCCACAUCUACGAAUUCGUACCAUAGAGAGGAUAUCCGCCCACCGAGAUCGGAAGAGCACACGU | ~58 |
| target 1 insC 3' of 16,insA 3' of 3 (mixed) RNA 1: CACCCGUGCAAAAAUGCAGGGGUCUAAAACUGAGCGGAUAACCUCUCUAUGG RNA 2: GGGAAUGGAUCCACAUCUACGAAUUCGUACCAUAGACGAGGUUAUCCGCUACACCGAGAUCGGAAGAGCACACGU | 62 ± 10 |
| target 1 insA 3' of 21,insG 3' of 21 (mixed) RNA 1: CACCCGUGCAAAAAUGCAGGGGUCUAAAACUGAGCGGAUAACCUCUCUAUGG RNA 2: GGGAAUGGAUCCACAUCUACGAAUUCGUACCAGAUAGAGAGGUUAUCCGCUCACCGAGAUCGGAAGAGCACACGU | 40 ± 5 |
| target 1 insC 3' of 13,insA 3' of 8 (mixed) RNA 1: CACCCGUGCAAAAAUGCAGGGGUCUAAAACUGAGCGGAUAACCUCUCUAUGG RNA 2: GGGAAUGGAUCCACAUCUACGAAUUCGUACCAUAGAGAGCGUUAUACCGCUCACCGAGAUCGGAAGAGCACACGU | 16.6 ± 0.6 |
| target 1 insU 3' of 20,insA 3' of 3 (mixed) RNA 1: CACCCGUGCAAAAAUGCAGGGGUCUAAAACUGAGCGGAUAACCUCUCUAUGG RNA 2: GGGAAUGGAUCCACAUCUACGAAUUCGUACCAUUAGAGAGGUUAUCCGCUACACCGAGAUCGGAAGAGCACACGU | 11.3 ± 1.1 |
| target 1 insU 3' of 15,insU 3' of 1 (mixed) RNA 1: CACCCGUGCAAAAAUGCAGGGGUCUAAAACUGAGCGGAUAACCUCUCUAUGG RNA 2: GGGAAUGGAUCCACAUCUACGAAUUCGUACCAUAGAGUAGGUUAUCCGCUCAUCCGAGAUCGGAAGAGCACACGU | 11.2 ± 0.8 |
| target 1 insC 3' of 16,insG 3' of 10 (mixed) RNA 1: CACCCGUGCAAAAAUGCAGGGGUCUAAAACUGAGCGGAUAACCUCUCUAUGG RNA 2: GGGAAUGGAUCCACAUCUACGAAUUCGUACCAUAGACGAGGUUGAUCCGCUCACCGAGAUCGGAAGAGCACACGU | 79 ± 15 |
| target 1 U8C,A16G (mixed) RNA 1: CACCCGUGCAAAAAUGCAGGGGUCUAAAACUGAGCGGAUAACCUCUCUAUGG RNA 2: GGGAAUGGAUCCACAUCUACGAAUUCGUACCAUAGGGAGGUUACCCGCUCACCGAGAUCGGAAGAGCACACGU | 54 ± 5 |
| target 1 insU 3' of 15,insC 3' of 1 (mixed) RNA 1: CACCCGUGCAAAAAUGCAGGGGUCUAAAACUGAGCGGAUAACCUCUCUAUGG RNA 2: GGGAAUGGAUCCACAUCUACGAAUUCGUACCAUAGAGUAGGUUAUCCGCUCACCCGAGAUCGGAAGAGCACACGU | 8.8 ± 0.5 |
| target 1 insC 3' of 13,insU 3' of 7 (mixed) RNA 1: CACCCGUGCAAAAAUGCAGGGGUCUAAAACUGAGCGGAUAACCUCUCUAUGG RNA 2: GGGAAUGGAUCCACAUCUACGAAUUCGUACCAUAGAGAGCGUUAUCUCGCUCACCGAGAUCGGAAGAGCACACGU | 25.7 ± 1.8 |
| target 1 U3G,C6G (mixed) RNA 1: CACCCGUGCAAAAAUGCAGGGGUCUAAAACUGAGCGGAUAACCUCUCUAUGG RNA 2: GGGAAUGGAUCCACAUCUACGAAUUCGUACCAUAGAGAGGUUAUCGGCGCACCGAGAUCGGAAGAGCACACGU | 4.32 ± 0.23 |
| target 1 U11G,G13A (mixed) RNA 1: CACCCGUGCAAAAAUGCAGGGGUCUAAAACUGAGCGGAUAACCUCUCUAUGG RNA 2: GGGAAUGGAUCCACAUCUACGAAUUCGUACCAUAGAGAAGGUAUCCGCUCACCGAGAUCGGAAGAGCACACGU | 16.6 ± 1.6 |
| target 1 insU 3' of 15,insA 3' of 2 (mixed) RNA 1: CACCCGUGCAAAAAUGCAGGGGUCUAAAACUGAGCGGAUAACCUCUCUAUGG RNA 2: GGGAAUGGAUCCACAUCUACGAAUUCGUACCAUAGAGUAGGUUAUCCGCUCAACCGAGAUCGGAAGAGCACACGU | 10.9 ± 1.1 |
| target 1 U3C,G13A (mixed) RNA 1: CACCCGUGCAAAAAUGCAGGGGUCUAAAACUGAGCGGAUAACCUCUCUAUGG RNA 2: GGGAAUGGAUCCACAUCUACGAAUUCGUACCAUAGAGAAGUUAUCCGCCCACCGAGAUCGGAAGAGCACACGU | 37 ± 8 |
| target 1 insG 3' of 9,insU 3' of 2 (mixed) RNA 1: CACCCGUGCAAAAAUGCAGGGGUCUAAAACUGAGCGGAUAACCUCUCUAUGG RNA 2: GGGAAUGGAUCCACAUCUACGAAUUCGUACCAUAGAGAGGUUAGUCCGCUCUACCGAGAUCGGAAGAGCACACGU | 18.9 ± 1.2 |
| target 1 A14U,G15C (mixed) RNA 1: CACCCGUGCAAAAAUGCAGGGGUCUAAAACUGAGCGGAUAACCUCUCUAUGG RNA 2: GGGAAUGGAUCCACAUCUACGAAUUCGUACCAUAGACUGGUUAUCCGCUCACCGAGAUCGGAAGAGCACACGU | ~80 |
| target 1 insU 3' of 15,insG 3' of 1 (mixed) RNA 1: CACCCGUGCAAAAAUGCAGGGGUCUAAAACUGAGCGGAUAACCUCUCUAUGG RNA 2: GGGAAUGGAUCCACAUCUACGAAUUCGUACCAUAGAGUAGGUUAUCCGCUCAGCCGAGAUCGGAAGAGCACACGU | 11.6 ± 0.7 |
| target 1 insA 3' of 13,insU 3' of 6 (mixed) RNA 1: CACCCGUGCAAAAAUGCAGGGGUCUAAAACUGAGCGGAUAACCUCUCUAUGG RNA 2: GGGAAUGGAUCCACAUCUACGAAUUCGUACCAUAGAGAGAGUUAUCCUGCUCACCGAGAUCGGAAGAGCACACGU | 4.15 ± 0.3 |
| target 1 insU 3' of 13,insU 3' of 5 (mixed) RNA 1: CACCCGUGCAAAAAUGCAGGGGUCUAAAACUGAGCGGAUAACCUCUCUAUGG RNA 2: GGGAAUGGAUCCACAUCUACGAAUUCGUACCAUAGAGAGUGUUAUCCGUCUCACCGAGAUCGGAAGAGCACACGU | 22.4 ± 3.3 |
| target 1 U8C,A9G (mixed) RNA 1: CACCCGUGCAAAAAUGCAGGGGUCUAAAACUGAGCGGAUAACCUCUCUAUGG RNA 2: GGGAAUGGAUCCACAUCUACGAAUUCGUACCAUAGAGAGGUUGCCCGCUCACCGAGAUCGGAAGAGCACACGU | 13.4 ± 0.6 |
